Experiment: soluble on expression in E. coli; label from the status in PepcDB or PDB records

Sequence	soluble on expression in E. coli
MGSDKIHHHHHHMDVLQKEIDEVYATHPTAHEALDNGIVEQHQQFVRSLTEVNGGCAVISDLSNRKSYVTVHPWANFLGLTPEEAALSVIDSMDEDCIYRRIHPEDLVEKRLMEYKFFQKTFSMSPGERLKYRGRCRLRMMNEKGVYQYIDNLVQIMQNTPAGNVWLIFCLYSLSADQRPEQGIYATITQMERGEVETLSLSEEHRNILSEREKEILRCIRKGLSSKEIAATLYISVNTVNRHRQNILEKLSVGNSIEACRAAELMKLL	not soluble
MSLEKPKYKRIVLKLSGEALAGEQGNGINPTVIQSIAKQVKEIAELEVEVAVVVGGGNLWRGKTGSDLGMDRATADYMGMLATVMNSLALQDSLETLGIQSRVQTSIEMRQVAEPYIRRKAIRHLEKKRVVIFAAGTGNPYFSTDTTAALRAAEIEADVILMAKNNVDGVYNADPRKDESAVKYESLSYLDVLKDGLEVMDSTASSLCMDNDIPLIVFSIMEEGNIKRAVIGESIGTIVRGKEGHHHHHH	soluble
MRAKKRKFLQKEELSKLLQSLDMSQIGFGWFVMLAAKTGMRYAEALAITPADFDWTAQTISINKTWDYKYNKGFAKTKTLSSVRTIKIDWQIVGQFKPLIKDFPEDEPIFVEKFGDGTYKRQFNSTINNFLAVKCNETGITQISFHALRHTHASVLLAEGVSIHTISARLGHADVGVTQETYAHVLDELQKKDDQKMLSVLMQIALEHHHHHH	not soluble
MRDRVRWRVLSLPPLAQWREVMAALEVGPEAALAYWHRGFRRKEDLDPPLALLPLKGLREAAALLEEALRQGKRIRVHGDYDADGLTGTAILVRGLAALGADVHPFIPHRLEEGYGVLMERVPEHLEASDLFLTVDCGITNHAELRELLENGVEVIVTDHHTPGKTPPPGLVVHPALTPDLKEKPTGAGVAFLLLWALHERLGLPPPLEYADLAAVGTIADVAPLWGWNRALVKEGLARIPASSWVGLRLLAEAVGYTGKAVEVAFRIAPRINAASRLGEAEKALRLLLTDDAAEAQALVGELHRLNARRQTLEEAMLRKLLPQADPEAKAIVLLDPEGHPGVMGIVASRILEATLRPVFLVAQGKGTVRSLAPISAVEALRSAEDLLLRYGGHKEAAGFAMDEALFPAFKARVEAYAARFPDPVREVALLDLLPEPGLLPQVFRELALLEPYGEGNPEPLFLLFGAPEEARRLGEGRHLAFRLKGVRVLAWKQGDLALPPEVEVAGLLSENAWNGHLAYEVQAVDLRKPEALEGGIAPFAYPLPLLEALARARLGEGVYVPEDNPEGLDYAWKAGFRLLPPEEAGLWLGLPPRPVLGRRVEVALGREARARLSAPPVLHTPEARLKALVHRRLLFAYERRHPGLFSEALLAYWEVNRVQEPAGSP	soluble
MIIPALDLIDGTVVRLHQGDYARQRDYGNDPLPRLQDYAAQGAGVLHLVDLTGAKDPAKRQIPLIKTLVAGVNVPVQVGGGVRTEEDVAALLKAGVARVVIGSTAVKSPDVVKGWFERFGAQALVLALDVRIDEHGTKQVAVSGWQENSGVSLEQLVETYLPVGLKHVLCTDISRDGTLAGSNVSLYEEVCARYPQIAFQSSGGIGDIDDIAALRGTGVRGVIVGRALLEGKFTVKEAIQCWQNV	not soluble
MLVEEAPVDADLGAAVTRLRALALEALCAGSLSAEQVLDHTRPAALALALAVCTPAEYARPWFRRATGDVRVLLARRLAEELGEDHVRWAAAIDLSGSFAGSVGELLHSDEAPGSVHRFLHPHRSSHATQNLLLALAPRDVAARYLAGLVETRRPNVVAYKMDWMLRSGPLSRPLVARGVGGSVGGQRELLGNDLCPDFVLEQVHGGYARHVMYREIIPPKVLKRAFRAYAASEPAHEVRAWAVSLLGERTDRLMDLAWSLTDAPTLLHRLVAAVLDRADPATLTCLYGALAEAAGPEPVWALDLERAGSLDAVQPAVRASMAAGSAEPLVEAAKRIPRRHWLDVLDEEAFGGQMLRDEAELDRTGHFPLEALVAARLDGRPERWAEVARQVAGGRMPVEAVVEGVVAAAIEEIGESAAKTAPETPTEAAPETTAEAAPQTPAEAAPQTPANAAPQTPTKPAPQPPAASPIAAPPAHAAPSASTT	not soluble
MLLDKLSRPLKVLRISLTDRCNLRCNFCMPPGKEYNFLPKRQLLTPEEIEEYVKIFAKLGVEKVRLTGGEPLLREDLEEIIQRISKVEGIKDIALTTNGVFLKERLKALKEAGLKRITVSVHSLNPEKNQKLVNRSVNLGEVFEVIIRAKELGFKVKVNSVIIKGFNDDEILDLARFFKNLGVTLRFIEYMDVGTVNDWDFSKVVSADEILNLMKKEFTFYPLPKRPEDTSMDFIYEDGNKFGIIASVTKPFCRGCNRIRLSADGKLYTCLFSDKGHDLRNAVDKENFIKEVWKDRKDRYSELRRQMKRERKVEMFKVGGMGHHHHHHSH	soluble
MGSDKIHHHHHHMSNLKHTRHNSHNVRHHSTGNSMNYVSTGQGEAILLIHGLFGNLDNLKGLGQALEAHHQVIRVDVPNHGLSEHRQQMDYPSLAKAMVDLLDELELERVHIVGHSMGGKIAMATALAYPNRIISLVAADIAPVAYQPRHNAVFAALESLPLEGHTDRRFALAHLLAAGIDDATAQFLLKNLQRSGTGFRWKMNLTGLKSGYPNIIGWHNLPNEPQLVFAGPSLFIRGGDSNYVAAAHRDEILRQFPQAQAKTLEGCGHWLHAQKPTIFNRIVSEFIDKHTV	not soluble
MLNSEKMIASLDQQDLAHAEKYFQKALKEDDADSLIALGEYLESIGFLPHAKRIYLQLADDYPELNINLAQIAAEDDAIEEAFLYLDKVSKDSPNYLSALLVMADLYDMEGLTEVAREKLLQAVGISPEPLVIFGLAEIDMSLQHFKEAIDYYAQLDNRQILELTGISTYQRIGRAYASLGKFEAAIEFLEKAVAIEYEDETVFELATLMYDQENYQKANLYFKQLETINPDYPGYEYGYALSLHEEHKTSEALRLVQQGLRKNAFDSQLLLLASQLSYELHDRQNAENYLLQAKEVAVDDEEILMRLVTLYFDAERFEEVIALNRETIDNVLTKWTIAKAYHALEQEEVALALYNEISADLAENPEFLQDYAYLLREFGQFHKAIQMATAYLRQVPDDVNMQDFLDHIKHQQSE	not soluble
MTNLTNYHSHCLYCDGRANMEDFIRFAISEGFSSYGISSHAPLPFSTAWTMEWDRMDDYLSEFARLKEKYADKIELAIGLEIDYLNEESHPAIPRFQELPLDYRIGSVHMLYSPQGKVVDIDTPADIFRQLIDAHFEGDLDYVVHLYYKNLLRMVELGGFDILGHADKMHYNASCYRPGLLDEPWYDALVRDYFAEIARHGYIVEINTKSYHDLGTFYPNERYFPLLKELGIRVQVNSDAHYPERINNSRAEALAALKKVGFDTVVEWHGGQWKDMPLLQLEHHHHHH	soluble
MGSDKIHHHHHHMKNFSLWCDFIENSFLDNEFLNLLSHGINGATSNPAIFKNAILNSPIYKDKILKLKEKKTKDIYEELAISDIQKAADKLAPLFYQKNDGFISIEIDPRLHDNTTLSLGEAKRLYSAIGKENIMIKIPATKASYEVMYELMKNGISVNATLIFSLEQSQKCFEALNAGLVEFRKNNIALKEQNTRTPQAVISIFVSRFDRLLNPKAKEQNRIGILNANLAYNNIYSKNEPNIRALFASTGVKGDDLPKDYYIKELLFENSVNTAPLDAIEAFKGKMHFKKPLMNFEIYTELNQIISQSEREKACNDLLSDGLEQFCIAFEDILKAL	not soluble
MGSDKIHHHHHHMFRHFRSRFGTPAWAGVNEDDFLLVRSWFGHGRHHGRDRDKHFGNEMFGRGWGDEHRTRRGDIKFILLELLSEHPSHGYDLIKEMETRYGGFRRLSPGSVYPTLQLLEEGGYLKSAQEGGKRIYTITDEGRKLLAERAQQETSDTPWDTVKSFVTGKPQEFIELRNAATELAAVVVQVARSGNVERINRVRELLEQVKREIYTILAEK	not soluble
MCISKIDMAKVKKFFKEYLFAKFQCKNRELYRQLKDYDPKDDQKYLKWEHFVEYVEQVLEALDKTSAQIIKEIYIQNKRICELPYSYSTYYAYRKKAIIELLAYLDLKI	soluble
MAVDAVNSAAANPWANAGASSSDKNAASLNYDSFLKLLIAQMKNQDPTSPMDAGQQMSQLASFSQVEQTIKTNTHLKSMLQAEALTRASDLVGKTVMSADDKVTGVVKEVQVFSDGIVAVTEAGDKVLLQAGVVFSNGPITTKSDETTADSNNSAGS	not soluble
MRIEKVDTFPLFHKLSSPYGDANGLKSYRTSYLIRITTASGLTGWGECADWLPALDAGFKKRIIPYLIGKEASNRTELITVIKKWHQRAASAVSMALTDITAKKAGLSVCELWGGKLREQIPVYASFQSYSDRPDWSRHSLRLIEKAVRAGFKAVKLKAGGKMFSEDLAHIQAFQEMTGQSTGLILDANQSYDQAAARKWETWFSGWQNVLWFEEPMPFDDLAEYRMLRSALSVPVAGGENVKGAKPFLPIFLENAVDIAQPDVMHCEGTDEFQTVLKLARHFGKRVSPHSYDGGLSRIYAAFGQACLPHWTKMDGEDIEPLEWDAMENPFAQIVPVSIKDGCIQVPDKIEIDTELVEAYVWDGSSYI	soluble
MSLEKVQLPSVPAFKGHSFLAFPTLRAYHTLRLAMEFRALETEGLLLYNGNARGKDFLALALLDGHVQFRFDTGSGPAVLTSLVPVEPGRWHRLELSRHWRQGTLSVDGEAPVVGESPSGTDGLNLDTKLYVGGLPEEQVATVLDRTSVGIGLKGCIRMLDINNQQLELSDWQRAVVQSSGVGEEGHHHHHH	soluble
MITTRLHGRLGNQMFQYAAARGLAARLGTQVALDTRLAESRGEGVLTRVFDLDLAQPDQLPPLKGDGLLRHGAWRLLGLAPRFRREHGLGYNAAIETWDDGTYLHGYWQSERYFAHIAARIRADFAFPAFSNSQNAEMAARIGDTDAISLHVRRGDYVALAAHTLCDQRYYAAALTRLLEGVAGDPVVYLFSDDPAWARDNLALPVQKVVVDFNGPETDFEDMRLMSLCRHNIIGNSSFSWWAAWLNAHPGKRIAAPASWFGDAKLHNPDLLPPDWLKIEVLEHHHHHH	not soluble
MGSDKIHHHHHHMTRSVLVDLDAVLSIARLGSFRAAALDLGMSTTALSNAIAKLEQRLGVRLFNRTTRSVSLTDAGKTFAERVGPAMMDIHDAMLSVQSLQETPAGTLRINAFATAAREVMEPLILSFMQRYPQVHIDLVTEGRIVDIVAAGFDLGLRPADLVPADMIAVSLGLKRSNAVVASPDFLRIHGIPTVPADLYRFRCIRARLPNNALFRWKFEKDGDAMQIDVQGSITLDESSLVRIAAQNGVGLGYVMEADVREDIAAGRLVRVLEDWTPALAPLALYYPGRKNPPAAFSAFIQAARNFANGG	not soluble
MGGLQQRCLWEVVTPRLSGAASLNGEQRADVCVIGAGFTGLSAALHLLEAGRSVCVLEAYEVGHGGSGRNVGLINAGTWIPPDEVVATLGAEQGEKLNAVLGRAPALVMETIERLGIDCQLRREGTLHMSHNASGVADLQRRHAQWTRRGAPLELLTGAACHEACGTRRISAALLDRRAGTLNPMAYSRGLATAVVQRGGQLYQRSPVLALERQGALWAVRSSAGAVLAEQVVIASNAYTEGEWTNLRRHFFPGYYYQVASAPLHGAAAERILPHGQGSWDTRTVLSSIRRDAQGRLLLGSLGNGANKPAWFLRQWADRIQSHYFPDLGQVNWEYSWTGCIAFTPDHLMRLFEPAEGLLAVTGYNGRGVTTGTVVGKAFADYLLSGERATLPLPFSDMKPVPAARLRSCAYEMGFSLYHAGQCLRVVLLEHHHHHH	soluble

Source: the DeepSol protein solubility set
